Assays:
[1] = molecular target: T1, PD-L2 on CHO-PD-L2 cells (human, UniProt Q9BQ51 20-273); test: cell-based or functional assay
T1 sequence: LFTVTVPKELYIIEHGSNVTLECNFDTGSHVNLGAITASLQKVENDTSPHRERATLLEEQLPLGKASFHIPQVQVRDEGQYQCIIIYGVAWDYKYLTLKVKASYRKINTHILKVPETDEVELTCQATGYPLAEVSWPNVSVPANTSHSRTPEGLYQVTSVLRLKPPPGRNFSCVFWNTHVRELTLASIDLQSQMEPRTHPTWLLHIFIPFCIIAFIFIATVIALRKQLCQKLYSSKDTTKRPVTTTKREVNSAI

[2] = molecular target: T1, PD-L2 on CHO-PD-L2 cells; test: cell-based or functional assay; remark: listed apart in the source
[3] = molecular target: T1, PD-L2 on CHO-PD-L2 cells; test: cell-based or functional assay; remark: listed apart in the source
[4] = molecular target: T2, Cyno PD-L2-Fc (cyno, UniProt A0A2K5U5Z4 20-220); test: ForteBio Octet, IgG KD, Cyno PD-L2-Fc, avid
T2 construct: not shown: Fc part
T2 sequence: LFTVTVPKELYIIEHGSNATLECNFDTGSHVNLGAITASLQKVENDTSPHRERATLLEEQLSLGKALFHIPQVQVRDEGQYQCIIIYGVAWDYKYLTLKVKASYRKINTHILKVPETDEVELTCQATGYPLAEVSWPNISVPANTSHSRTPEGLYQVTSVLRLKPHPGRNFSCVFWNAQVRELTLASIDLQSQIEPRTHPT
Protocol: (§1) ForteBio K_D measurements—ForteBio affinity measurements were performed on an Octet RED384 generally as previously described (see, e.g., Estep et al., High throughput solution-based measurement of antibody-antigen affinity and epitope binning. Mabs 5(2), 270-278 (2013)). Briefly, ForteBio affinity measurements were performed by loading IgGs on-line onto AHQ sensors. Sensors were equilibrated off-line in assay buffer for 30 min and then monitored on-line for 60 seconds for baseline establishment. Sensors with loaded IgGs were exposed to 100 nM antigen for 3 minutes, and afterwards were transferred to assay buffer for 3 min for off-rate measurement. For monovalent affinity assessment Fabs were used instead of IgGs. For this assessment the unbiotinylated Fc fusion antigen was loaded on-line onto the AHQ sensors. Sensors were equilibrated off-line in assay buffer for 30 min and then monitored on-line for 60 seconds for baseline establishment. Sensors with loaded antigen were exposed to 100 nM Fab for 3 minutes, and afterwards they were transferred to assay buffer for 3 min for off-rate measurement. All kinetics were analyzed using the 1:1 binding model.

[5] = molecular target: T3, Human PD-L2-Fc (human, UniProt Q9BQ51 20-220); test: ForteBio Octet, IgG KD, Human PD-L2-Fc, avid
T3 construct: also called Fc fusion antigen; not shown: Fc part
T3 sequence: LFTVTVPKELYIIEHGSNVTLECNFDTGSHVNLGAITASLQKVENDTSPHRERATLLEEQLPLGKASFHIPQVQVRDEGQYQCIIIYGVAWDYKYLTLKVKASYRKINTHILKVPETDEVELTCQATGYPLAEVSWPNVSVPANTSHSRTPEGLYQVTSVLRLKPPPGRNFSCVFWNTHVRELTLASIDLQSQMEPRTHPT

[6] = molecular target: T4, Mouse PD-L2-Fc (mouse, UniProt Q9WUL5 20-219); test: ForteBio Octet, IgG KD, Mouse PD-L2-Fc, avid
T4 construct: not shown: Fc part
T4 sequence (looked up): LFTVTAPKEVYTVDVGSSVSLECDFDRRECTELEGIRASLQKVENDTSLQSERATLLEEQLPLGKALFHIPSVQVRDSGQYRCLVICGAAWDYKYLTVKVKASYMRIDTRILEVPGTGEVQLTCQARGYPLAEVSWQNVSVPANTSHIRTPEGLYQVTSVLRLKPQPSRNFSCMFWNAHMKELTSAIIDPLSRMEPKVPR

[7] = molecular target: T5, Human PD-L2-HIS (human, UniProt Q9BQ51 20-220); test: IgG KD, Human PD-L2-HIS, monovalent (method not named in the table: ForteBio or MSD-SET)
T5 construct: also called HIS-tagged protein (human PD-L2); not shown: HIS tag
T5 sequence: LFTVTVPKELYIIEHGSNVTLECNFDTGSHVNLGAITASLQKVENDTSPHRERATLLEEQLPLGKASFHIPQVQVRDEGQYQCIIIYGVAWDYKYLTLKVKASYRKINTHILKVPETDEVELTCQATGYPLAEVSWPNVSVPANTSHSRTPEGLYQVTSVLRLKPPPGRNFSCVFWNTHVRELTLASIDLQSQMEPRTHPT

[8] = molecular target: T6, human PD-L2 protein (human, UniProt Q9BQ51 20-220, limits assumed); test: MFI against Ab nM; legend: binding to human PD-L2 protein, maximum fluorescence intensity, ForteBio Octet
T6 construct: also called analyte (PD-L2)
T6 sequence: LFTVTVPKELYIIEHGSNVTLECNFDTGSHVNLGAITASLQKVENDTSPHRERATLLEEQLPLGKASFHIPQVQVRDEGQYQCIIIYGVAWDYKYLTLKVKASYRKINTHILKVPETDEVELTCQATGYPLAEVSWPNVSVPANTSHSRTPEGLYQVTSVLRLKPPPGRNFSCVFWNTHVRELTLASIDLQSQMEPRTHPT
Protocol: Antibody Screening and Characterization. Antibody candidates generated from the presentation methods described above were tested for the capacity to bind to PD-L2 and block its binding to PD-1. 5 µg/mL of antibody was bound to CHO-PD-L2 cells and then recombinant PD-1 (RnD Systems) labelled with Alexa 532 (ThermoFisher) was added for 1 hour. PD-1 maximum fluorescence intensity was measured. Blockade of PD-1 binding was measured by reduction in Alexa 532 fluorescence by flow cytometry. […] The binding and release of the analyte (PD-L2) are recorded by the Octet instrument in real time and then used to calculate the KD, $Kon$, and $Kdis$; results are derived from 2:1 Global Fit Modeling with reference well subtraction. […]
PD-L2 antibodies avidly bind human PD-L2. […] Antibody subclones were immobilized on Anti-Human Fc Capture (AHC) Biosensors at 100 nM (15 μg/mL), and human PD-L2 protein association and dissociation was tested in dilution series from 30-0.37 nM (FIGS. 4A-B).

[9] = molecular target: T1, PD-L2 on CHO-PD-L2 cells; test: cell surface binding, panel 'Binding Assay PD-L2', MFI against Ab nM (flow cytometry on PD-L2 expressing cells)
[10] = molecular target: T3, Human PD-L2-Fc; test: ForteBio Octet, Fab KD, Human PD-L2-Fc on sensor, monovalent
Protocol: as §1

[11] = molecular target: T1, PD-L2 on CHO-PD-L2 cells; test: cell-based or functional assay; remark: listed apart in the source
[12] = molecular target: T1, PD-L2 on CHO-PD-L2 cells; test: competition assay by flow cytometry: antibody against Biotin-rhPD-1-Fc on PD-L2 expressing cells, Streptavidin-APC; axis 'Antibodies µg (logX)'

Binder	EC50 (read off the curve) [3]	Kd [4]	Kd [5]	Kd [6]	Kd [7]	EC50 (read off the curve) [8]	Kd [10]	further results
ADI-20810 (anti-PD-L2 antibody 20810), IgG (antibody, V domains shown, Tested as full-length IgG) VH: not shown VL: EIVLTQSPATLSLSPGERATLSCRASQSVSSYLAWYQQKPGQAPRLLIYDASNRATGIPARFSGSGSGTDFTLTISSLEPEDFAVYYCQQVVTLPPTFGGGTKVEIK	~0.2 nM	0.3 nM	0.331 nM	0.503 nM	0.0025 nM	~0.7 nM	–	IC50 (Promega PD-1:PD-L2 bioassay, luciferase) [1]: 0.41 nM; EC50 (read off the curve) [2]: ~0.4 nM; EC50 (read off the curve) [9]: ~0.7 nM
ADI-20810 Fab (Fab, V domains shown) VH: not shown VL: EIVLTQSPATLSLSPGERATLSCRASQSVSSYLAWYQQKPGQAPRLLIYDASNRATGIPARFSGSGSGTDFTLTISSLEPEDFAVYYCQQVVTLPPTFGGGTKVEIK	–	–	–	–	–	–	0.267 nM	–
ADI-20811 Fab (Fab, V domains shown) VH: QVQLVQSGAEVKKPGSSVKVSCKASGGTFSSAAIHWVRQAPGQGLEWMGGIIPIFGLAQYAQKFQGRVTITADESTSTAYMELSSLRSEDTAVYYCARLPRTWSAFDIWGQGTMVTVSS VL: EIVLTQSPATLSLSPGERATLSCRASQSVSSYLAWYQQKPGQAPRLLIYDASNRATGIPARFSGSGSGTDFTLTISSLEPEDFAVYYCQQVVTLPPTFGGGTKVEIK	–	–	–	–	–	–	0.21 nM	–
ADI-20811 (anti-PD-L2 antibody 20811), IgG (antibody, V domains shown, Tested as full-length IgG) VH: QVQLVQSGAEVKKPGSSVKVSCKASGGTFSSAAIHWVRQAPGQGLEWMGGIIPIFGLAQYAQKFQGRVTITADESTSTAYMELSSLRSEDTAVYYCARLPRTWSAFDIWGQGTMVTVSS VL: EIVLTQSPATLSLSPGERATLSCRASQSVSSYLAWYQQKPGQAPRLLIYDASNRATGIPARFSGSGSGTDFTLTISSLEPEDFAVYYCQQVVTLPPTFGGGTKVEIK	~0.2 nM	0.231 nM	0.248 nM	0.259 nM	0.0085 nM	~0.3 nM	–	IC50 (Promega PD-1:PD-L2 bioassay, luciferase) [1]: 0.24 nM
ADI-20816 (anti-PD-L2 antibody 20816), IgG (antibody, V domains shown, Tested as full-length IgG; Clone family 55-g1) VH: QVQLVQSGAEVKKPGSSVKVSCKASGGTFSSYLIAWVRQAPGQGLEWMGGIIPHFGVANYAQKFQGRVTITADESTSTAYMELSSLRSEDTAVYYCARVPQYHGYFDLWGRGTLVTVSS VL: DIQMTQSPSSVSASVGDRVTITCRASQGISSWLAWYQQKPGKAPKLLIYAASNLQSGVPSRFSGSGSGTDFTLTISSLQPEDFATYYCQQGNSFPTFGGGTKVEIK	~0.3 nM	0.296 nM	0.116 nM	21.6 nM	0.052 nM	~0.9 nM	–	IC50 (Promega PD-1:PD-L2 bioassay, luciferase) [Cont'd] [11]: 0.38 nM
anti-PD-L2 antibody 16510 (antibody, human IgG1, V domains shown) VH: QVQLVQSGAEVKKPGSSVKVSCKASGGTFSSYAISWVRQAPGQGLEWMGGIIPIFGTANYAQKFQGRVTITADESTSTAYMELSSLRSEDTAVYYCARVQKQYTYFDLWGRGTLVTVSS VL: DIQLTQSPSSLSASVGDRVTITCQASQDISNFLNWYQQKPGKAPKLLIYDASNLETGVPSRFSGSGSGTDFTFTISSLQPEDIATYYCQQLVGAPPTFGGGTKVEIK	–	–	–	–	–	–	–	IC50 (read off the curve) [12]: ~0.006 µg
ADI-20816 Fab (Fab, V domains shown) VH: QVQLVQSGAEVKKPGSSVKVSCKASGGTFSSYLIAWVRQAPGQGLEWMGGIIPHFGVANYAQKFQGRVTITADESTSTAYMELSSLRSEDTAVYYCARVPQYHGYFDLWGRGTLVTVSS VL: DIQMTQSPSSVSASVGDRVTITCRASQGISSWLAWYQQKPGKAPKLLIYAASNLQSGVPSRFSGSGSGTDFTLTISSLQPEDFATYYCQQGNSFPTFGGGTKVEIK	–	–	–	–	–	–	0.268 nM	–

— US12428489 (University of Texas, dated 2025)
